One data set has as its system AC440. Put plainly: Tolerance of 2HIB in AC440. The format is cell-based, E. coli. Conditions: M9-LB; cell density at 600 nm. The procedure: To check the tolerance of 2HIB, AC440 was grown in 5 mL of M9-LB supplemented with different concentration of 2HIB in 50 mL falcon tube, the cell density was monitored at 600 nm. The impact on growth could be observed at 25 g/L of 2HIB, while the AC440 is still able to grow and maintain its metabolic activity at the concentration of 2HIB at 75 g/L (FIG. 21), considering the cells will not suffer such high concentration of 2HIB at early stage, indicating AC440 is a good host for 2HIB production.

The next data set concerns formate. Put plainly: Screening of formate activation enzymes with acetone and formate using growing cultures (2HIB). In kind it is cell-based, E. coli. Conditions: 100 mM acetone and 20 mM formate; growing cells. The source says:
Since formate activation is a required step for formate utilization, we further evaluated enzymes catalyzing this reaction. Acyl-CoA synthetase (ACS) enzymes are one of the three explored routes for formate activation, which can directly generate formyl-CoA from formate with the consumption of 2 ATP equivalents (ATP is converted to AMP). […] Therefore, ACS variants were further evaluated using the new established growing cell platform with ApbHACS overexpression. In this platform, formyl-CoA generated through formate activation enzymes is further condensed with non-toxic substrate acetone to produce 2-hydroxyisobutyrate (2HIB) (FIG. 23C).
The screening of a larger group of formate activation enzymes in actively growing cells was conducted using the M9-LB medium contains 6.78 g/L Na2HPO4, 3 g/L KH2PO4, 1 g/L NH4Cl, 0.5 g/L NaCl, 2 mM MgSO4, 100 μM CaCl2), 15 μM thiamine-HCl, 10 g/L tryptone, and 5 g/L yeast extract additionally supplemented with the micronutrient solution of Neidhardt^68. […] The cells were pelleted by centrifugation and the supernatant analyzed by HPLC as described below. The expected product 2-hydroxyisobutyric acid was detected in the media indicating the performance of corresponding formate activation enzymes. […]

The next data set relates to 2-hydroxyisobutyryl-CoA. Put plainly: In vitro purified enzyme isobutene glycol production from acetone and formate, ACR comparison. The format is biochemical. Conditions: 1 μM ACR and 1 μM FucO; 50 mM formate and 200 mM acetone. The procedure: The enzymes acyl-CoA transferase CaAbfT, HACS ApbHACS, acyl-CoA reductase ACR (LmACR, BmACDH, PtACDH, RpPduP, StEutE), and NADH-dependent alcohol dehydrogenase FucO were overexpressed and purified as described above. In vitro purified enzyme reactions for condensation of acetone and formyl-CoA was comprised of 100 mM KPi pH 7.4, 10 mM MgCl2, 0.15 mM TPP, 4 mM NADH, 2 mM acetyl-CoA, 1 μM ApbHACL, 2 μM CaAbfT, 50 mM formate and 200 mM acetone. The mixture was incubated at 30° C. for 3 min, and then 1 μM ACR and 1 μM FucO was added, and then the reactions were incubated at 30° C. for another 5 min unless otherwise specified. 2 μL of 10 M NaOH was added to 45 μL mixture for 30 min, followed by 3 μL 10 N H2SO4, and then applied for HPLC analysis as described above.

For another data set, the system named is glyoxylate. Kind of data set: Growth-coupled selection of alanine dehydrogenases in glycine auxotroph strain. The format is cell-based, E. coli. Conditions: glycolate instead of glycine supplementation.

As to `CC(C)(O)C(=O)O` [2HIB, 2-hydroxyisobutyric acid], in the data set on AC440, the “2HIB concentration at which AC440 is still able to grow and maintain metabolic activity” value was found to be 75 g/L; the “2HIB concentration at which impact on growth could be observed” value is recorded as 25 g/L.

B1: OfFrc: acyl-CoA transferase (ACT), Oxalobacter formigenes, Uniprot O06644 (protein, UniProt O06644 2-428, looked up)
Formyl-CoA:oxalate …: TKPLDGINVLDFTHVQAGPACTQMMGFLGANVIKIERRGSGDMTRGWLQDKPNVDSLYFTMFNCNKRSIELDMKTPEGKELLEQMIKKADVMVENFGPGALDRMGFTWEYIQELNPRVILASVKGYAEGHANEHLKVYENVAQCSGGAAATTGFWDGPPTVSGAALGDSNSGMHLMIGILAALEMRHKTGRGQKVAVAMQDAVLNLVRIKLRDQQRLERTGILAEYPQAQPNFAFDRDGNPLSFDNITSVPRGGNAGGGGQPGWMLKCKGWETDADSYVYFTIAANMWPQICDMIDKPEWKDDPAYNTFEGRVDKLMDIFSFIETKFADKDKFEVTEWAAQYGIPCGPVMSMKELAHDPSLQKVGTVVEVVDEIRGNHLTVGAPFKFSGFQPEITRAPLLGEHTDEVLKELGLDDAKIKELHAKQVV
As for B1, the “performance on formate activation (2HIB)” value with formate was “better performance”.

B2: StEutE: acyl-CoA reductase, Salmonella typhymurium, Uniprot P41793 (protein, UniProt P41793 1-467, looked up)
Acetaldehyde dehydrogenase …: MNQQDIEQVVKAVLLKMKDSSQPASTVHEMGVFASLDDAVAAAKRAQQGLKSVAMRQLAIHAIREAGEKHARELAELAVSETGMGRVDDKFAKNVAQARGTPGVECLSPQVLTGDNGLTLIENAPWGVVASVTPSTNPAATVINNAISLIAAGNSVVFAPHPAAKKVSQRAITLLNQAVVAAGGPENLLVTVANPDIETAQRLFKYPGIGLLVVTGGEAVVDAARKHTNKRLIAAGAGNPPVVVDETADLPRAAQSIVKGASFDNNIICADEKVLIVVDSVADELMRLMEGQHAVKLTAAQAEQLQPVLLKNIDERGKGTVSRDWVGRDAGKIAAAIGLNVPDQTRLLFVETPANHPFAVTEMMMPVLPVVRVANVEEAIALAVQLEGGCHHTAAMHSRNIDNMNQMANAIDTSIFVKNGPCIAGLGLGGEGWTTMTITTPTGEGVTSARTFVRLRRCVLVDAFRIV
On to B2, for which, in the data set on 2-hydroxyisobutyryl-CoA, the “performance in isobutene glycol production” value is “best performance”.

B3: BsAld: alanine dehydrogenase from Bacillus subtilis, Uniprot Q08352 (protein, UniProt Q08352 1-378, looked up)
Alanine dehydrogenase: MIIGVPKEIKNNENRVALTPGGVSQLISNGHRVLVETGAGLGSGFENEAYESAGAEIIADPKQVWDAEMVMKVKEPLPEEYVYFRKGLVLFTYLHLAAEPELAQALKDKGVTAIAYETVSEGRTLPLLTPMSEVAGRMAAQIGAQFLEKPKGGKGILLAGVPGVSRGKVTIIGGGVVGTNAAKMAVGLGADVTIIDLNADRLRQLDDIFGHQIKTLISNPVNIADAVAEADLLICAVLIPGAKAPTLVTEEMVKQMKPGSVIVDVAIDQGGIVETVDHITTHDQPTYEKHGVVHYAVANMPGAVPRTSTIALTNVTVPYALQIANKGAVKALADNTALRAGLNTANGHVTYEAVARDLGYEYVPAEKALQDESSVAGA
On to B3, for which, in the data set on glyoxylate, the “growth of glycine auxotroph strain with glycolate” value is listed as “started to grow”.

The values above are taken from US20250369024A1, “Acyloin Condensation Reactions, Enzymes, and Products Thereof” (Mojia Biotech Pte. Ltd., priority 2023, published 2025).
